# From patent publication US20260250318A1, “COMPOSITIONS AND METHODS FOR CROSSING THE BLOOD BRAIN BARRIER” (VOYAGER THERAPEUTICS, INC., priority 2022, published 2026)
# T1: human ALPL expressed on cells (alkaline phosphatase tissue-nonspecific isozyme, NM_000478.4) (human, UniProt P05186 18-501)
# T1 sequence: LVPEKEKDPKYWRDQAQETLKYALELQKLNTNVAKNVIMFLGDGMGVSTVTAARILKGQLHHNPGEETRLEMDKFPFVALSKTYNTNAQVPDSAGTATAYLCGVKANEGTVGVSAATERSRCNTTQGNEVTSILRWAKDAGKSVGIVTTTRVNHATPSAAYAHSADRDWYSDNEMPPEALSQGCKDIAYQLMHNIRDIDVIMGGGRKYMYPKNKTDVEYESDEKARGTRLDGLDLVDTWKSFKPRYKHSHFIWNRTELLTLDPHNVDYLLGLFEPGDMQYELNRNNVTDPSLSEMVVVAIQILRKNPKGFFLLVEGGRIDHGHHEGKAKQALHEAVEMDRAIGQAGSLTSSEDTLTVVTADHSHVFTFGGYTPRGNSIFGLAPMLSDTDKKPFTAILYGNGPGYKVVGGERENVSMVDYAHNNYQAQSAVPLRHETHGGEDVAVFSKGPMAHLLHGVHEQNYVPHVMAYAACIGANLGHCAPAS
# Assays:
# [1] = target: T1, human ALPL expressed on cells (alkaline …); assay: cell-based or functional assay
# [2] = target: T1, human ALPL expressed on cells (alkaline …); assay: binding/internalization: AAV incubated 2 or 3 h with ALPL transfected HEK 293T cells, washed, viral genomes quantified
binder,measurement,setting,value
TTM-002 capsid variant (AAV particle comprising the TTM-002 AAV9 capsid variant) (other) chain 1: MAADGYLPDWLEDNLSEGIREWWALKPGAPQPKANQQHQDNARGLVLPGYKYLGPGNGLDKGEPVNAADAAALEHDKAYDQQLKAGDNPYLKYNHADAEFQERLKEDTSFGGNLGRAVFQAKKRLLEPLGLVEEAAKTAPGKKRPVEQSPQEPDSSAGIGKSGAQPAKKRLNFGQTGDTESVPDPQPIGEPPAAPSGVGSLTMASGGGAPVADNNEGADGVGSSSGNWHCDSQWLGDRVITTSTRTWALPTYNNHLYKQISNSTSGGSSNDNAYFGYSTPWGYFDFNRFHCHFSPRDWQRLINNNWGFRPKRLNFKLFNIQVKEVTDNNGVKTIANNLTSTVQVFTDSDYQLPYVLGSAHEGCLPPFPADVFMIPQYGYLTLNDGSQAVGRSSFYCLEYFPSQMLRTGNNFQFSYEFENVPFHSSYAHSQSLDRLMNPLIDQYLYYLSKTINGHDSPHKSGQNQQTLKFSVAGPSNMAVQGRNYIPGPSYRQQRVSTTVTQNNNSEFAWPGASSWALNGRNSLMNPGPAMASHKEGEDRFFPLSGSLIFGKQGTGRDNVDADKVMITNEEEIKTTNPVATESYGQVATNHQSAQAQAQTGWVQNQGILPGMVWQDRDVYLQGPIWAKIPHTDGNFHPSPLMGGFGMKHPPPQILIKNTPVPADPPTAFNKDKLNSFITQYSTGQVSVEIEWELQKENSKRWNPEIQYTSNYYKSNNVEFAVNTEGVYSEPRPIGTRYLTRNL chain 2: TAPGKKRPVEQSPQEPDSSAGIGKSGAQPAKKRLNFGQTGDTESVPDPQPIGEPPAAPSGVGSLTMASGGGAPVADNNEGADGVGSSSGNWHCDSQWLGDRVITTSTRTWALPTYNNHLYKQISNSTSGGSSNDNAYFGYSTPWGYFDFNRFHCHFSPRDWQRLINNNWGFRPKRLNFKLFNIQVKEVTDNNGVKTIANNLTSTVQVFTDSDYQLPYVLGSAHEGCLPPFPADVFMIPQYGYLTLNDGSQAVGRSSFYCLEYFPSQMLRTGNNFQFSYEFENVPFHSSYAHSQSLDRLMNPLIDQYLYYLSKTINGHDSPHKSGQNQQTLKFSVAGPSNMAVQGRNYIPGPSYRQQRVSTTVTQNNNSEFAWPGASSWALNGRNSLMNPGPAMASHKEGEDRFFPLSGSLIFGKQGTGRDNVDADKVMITNEEEIKTTNPVATESYGQVATNHQSAQAQAQTGWVQNQGILPGMVWQDRDVYLQGPIWAKIPHTDGNFHPSPLMGGFGMKHPPPQILIKNTPVPADPPTAFNKDKLNSFITQYSTGQVSVEIEWELQKENSKRWNPEIQYTSNYYKSNNVEFAVNTEGVYSEPRPIGTRYLTRNL chain 3: MASGGGAPVADNNEGADGVGSSSGNWHCDSQWLGDRVITTSTRTWALPTYNNHLYKQISNSTSGGSSNDNAYFGYSTPWGYFDFNRFHCHFSPRDWQRLINNNWGFRPKRLNFKLFNIQVKEVTDNNGVKTIANNLTSTVQVFTDSDYQLPYVLGSAHEGCLPPFPADVFMIPQYGYLTLNDGSQAVGRSSFYCLEYFPSQMLRTGNNFQFSYEFENVPFHSSYAHSQSLDRLMNPLIDQYLYYLSKTINGHDSPHKSGQNQQTLKFSVAGPSNMAVQGRNYIPGPSYRQQRVSTTVTQNNNSEFAWPGASSWALNGRNSLMNPGPAMASHKEGEDRFFPLSGSLIFGKQGTGRDNVDADKVMITNEEEIKTTNPVATESYGQVATNHQSAQAQAQTGWVQNQGILPGMVWQDRDVYLQGPIWAKIPHTDGNFHPSPLMGGFGMKHPPPQILIKNTPVPADPPTAFNKDKLNSFITQYSTGQVSVEIEWELQKENSKRWNPEIQYTSNYYKSNNVEFAVNTEGVYSEPRPIGTRYLTRNL,"transcytosis assay: virus detected in the bottom chamber (percent to the initial virus, qPCR), MDCK ALPL overexpressing cells against MDCK cells that did not express ALPL",[1],149 fold
same,"transcytosis assay: virus detected in the bottom chamber (percent to the initial virus, qPCR), MDCK ALPL overexpressing cells, TTM-002 against AAV9",[1],252 fold
same,"transcytosis assay: virus detected in the bottom chamber (percent to the initial virus, qPCR), single MDCK clone expressing ALPL, TTM-002 against AAV9",[1],7480 fold
same,fold change in viral gene expression (2^-ΔΔCT) relative to pCMV6 transfected cells,[2],5.92 fold
